Data from the DeepSol protein solubility set.

assay: soluble on expression in E. coli; label from the status in PepcDB or PDB records

Sequence | soluble on expression in E. coli
MSKVIQKKNHWTSRVHECTVKRGPQGELGLTVLGGAEHGEFPYVGAVAAVEAAGLPGGGEGPRLGEGELLLEVQGVRVSGLPRYDVLGVIDSCKEAVTFKAVRQGGRLNKDLRHFLNQRFQKGSPDHELQQTIRDNLYRHAVPCTTRSPREGEVPGVDYNFLTVKEFLDLEQSGTLLEVGTYEGNYYGTPKPPSQPVSGKVITTDALHSLQSGSKQSTPKRTKSYNDMQNAGIVHAENEEEDDVPEMNSSFTADSGEQEEHTLQETALPPVNSSIIAAPITDPSQKFPQYLPLSAEDNLGPLPENWEMAYTENGEVYFIDHNTKTTSWLDPRCLNKQQKPLEECEDDEGVHTEELDSELELPAGWEKIEDPVYGIYYVDHINRKTQYENPVLEAKRKKQLEQQQQQQQQQQQQQQQQQQQQQTEEWTEDHSALVPPVIPNHPPSNPEPAREVPLQGKPFFTRNPSELKGKFIHTKLRKSSRGFGFTVVGGDEPDEFLQIKSLVLDGPAALDGKMETGDVIVSVNDTCVLGHTHAQVVKIFQSIPIGASVDLELCRGYPLPFDPDDPNTSLVTSVAILDKEPIIVNGQETYDSPASHSSKTGKVNGMKDARPSSPADVASNSSHGYPNDTVSLASSIATQPELITVHIVKGPMGFGFTIADSPGGGGQRVKQIVDSPRCRGLKEGDLIVEVNKKNVQALTHNQVVDMLVECPKGSEVTLLVQRGGLPVPKKSPKSQPLERKDSQNSSQHSVSSHRSLHTASPSHSTQVLPEFPPAEAQAPDQTDSSGQKKPDPFKIWAQSRSMYENRPMSPSPASGLSKGEREREINSTNFGECPIPDYQEQDIFLWRKETGFGFRILGGNEPGEPIYIGHIVPLGAADTDGRLRSGDELICVDGTPVIGKSHQLVVQLMQQAAKQGHVNLTVRRKVVFAVPKTENEVPSPASSHHSSNQPASLTEEKRTPQGSQNSLNTVSSGSGSTSGIGSGGGGGSGVVSTVVQPYDVEIRRGENEGFGFVIVSSVSRPEAGTTFGNACVAMPHKIGRIIEGSPADRCGKLKVGDRILAVNGCSITNKSHSDIVNLIKEAGNTVTLRIIPGDESSNATLLTNAEKIATITTTHTPSQQGTQETRNTTKPKQESQFEFKAPQATQEQDFYTVELERGAKGFGFSLRGGREYNMDLYVLRLAEDGPAERCGKMRIGDEILEINGETTKNMKHSRAIELIKNGGRRVRLFLKRGDGSVPEYAM | soluble
MRHPIPDYLASLVTELGAVNPGETAQYIPVLAEADPDRFGIALATPTGRLHCAGDADVEFTIQSASKPFTYAAALVDRGFAAVDRQVGLNPSGEAFNELSLEAESHRPDNAMINAGALAVHQLLVGPEASRKERLDRAVEIMSLLAGRRLSVDWETYESEMAVSDRNLSLAHMLRSYGVLQDSAEEIVAGYVAQCAVLVTVKDLAVMGACLATGGIHPMTGERMLPSIVARRVVSVMTSSGMYDAAGQWLADVGIPAKSGVAGGVLGALPGRVGIGVFSPRLDEVGNSARGVLACRRLSEDFRLHLMDGDSLGGTAVRFVEREGDRVFLHLQGVIRFGGAEAVLDALTDLRTGAEKPGTGWDAAVYPRWQEAAADRAALSAATGGGAVHEAAAAAARDENDGPIRTVVLNLARVDRIDDVGRRLIAEGVRRLQADGVRVEVEDPERILPLEEAGAH | soluble
RPQNTNSWQKDSIEGIDIMLAMDVSGSMQAMDFKPNRLEAAKDVAISFINNRPNDNIGMVTFAGESFTQCPLTTDHTVLLNMVQDLQ | soluble
MSQYVVCALYKFVELNNYQELREPLLALMEKHHIRGTLLLAGEGINGTVASDRAGIDTLLEWLNTEPRLTGTVYKESYSETQPFNRTKVKLKKEIVTLGVEGIDPRHVVGTYVKPQDWNDLIADPEVFVVDTRNDYEIEIGTFKGAVNPNTETFREFPDYVKENMDPAKHKKVAMFCTGGIRCEKSTAYMKEQGFEEVYHLEGGILKYLEEVPQEESMWEGDCYVFDGRVAVNHQLEKADYDLCNACRLPITDEDKQSELFEQGVSCPKCHGKHSEEQVERFREREKQVSLANQRGEQHVGGESAKQRAQRREAKLAKKAAQRKQALEHHHHHH | soluble
MDRNLVQKGDAPPSKRSDPGTEFCVDIVVKGRKTEVPERFRKHVAEKLKLEKIQKLDGKVISLDVEVSKEPNPRQADRCDRVEITLRSRGPVIRAEAAASDPYAALDLAAEKLGARLRKQHDKRFSRRGARRISAAEVADHVPGAATLNGNGDVVPTEKQDGVPTKKIGSLEVQGDGPLVVREKTHVAAPMSLDQALYEMELVGHDFYLFVDSETKEPSVVYRRHAYDYGVIHLTTDTMVTQAHAPDAGDALGGLEHHHHHH | not soluble
GSSGSSGNWIDVRYDLEKIESLIQSIHIDTTLYTDSDFHPSCKVTAMNCFLLELQVILHEYSNMTLNETVRNVLYLANSTLSSNKNVAESGCKECEELEEKTFTEFLQSFIRIVQMFINTS | soluble
MGSDKIHHHHHHMKTIKGPAIFLAQFMSDVAPFNNLKNICDWAASLGYKGVQIPSWDVRCIDLQKAAESKTYCDEIKAVVHAAGLEITELTSHLQGQLVASHAAYDAAFDVFAPAAIHNNPKARAEWATQQLMYAAKASQNLGLTAHATFSGALLWHTMYPWPQRKAGSVEEGFTELAKRWLPILNAFDQAGVDLCYEIHPGEDLHDGITFERFLKATDNHSRAHILYDPSHFVLQQLNYLDYIDIYHEHIKMFHVKDAEFNPSGRAGVYGGYQDWIDRPGRFRSLGDGQVNFKAIFSKLTQYDFPGWAVLEWECCLKHPEDGAREGAAFIKNHIIRVADKAFDDFAG | not soluble
MGHHHHHHSAISVWRAVDYVRMPWKNGGGSTEEITRDAGTGLEGFGWRLSIADIGESGGFSSFAGYQRVITVIQGAGMVLTVDGEEQRGLLPLQPFAFRGDSQVSCRLITGPIRDFNLIYSPERYHARLQWVDGVQRFFSTAQTVLVFSVADEVKVLGEKLGHHDCLQVDGNAGLLDISVTGRCCLIELTQRG | soluble
MNSSESSSNSEVSSSKTRTVKHAMGTSDNIPANPKRIVVLTNEGTEALLALGIKPVGAVKSWKGDPWYDYLKDDMKGVKNVGLETEPNVEAIAELKPDLIIGNKVRQEKIYDQLNAIAPTVFAESLAGNWKDNLTLYANAVNKADKGKEVIADFDKRVSDLKNKLGDQTNKTVSVVRFLSGESRIYYTDSFPGIILDQLGFKRPEKQVELFKKQKDQFTFSTDSKESIPDMDADVLFYFTYKADNAKENEKWANQWTSSSLWKNLKAVKSGNAHEVDDVVWTTAGGIKAANYLLDDIETYFLKTKLEHHHHHH | not soluble
MHPRSKLSQAQRELAVDLFEEGYGSRAVANRLGVRREQVRHLEDRFRLHGRLCLVSKPTKKQYSFDTKMEILRRYRTGELKSDLAKEYGLSSPNLISHWVWQVNKGGSDALQPKPKGRPKGSGQSVPMTEEDTLRRENELLKAEVAYLKKLRDLREQRRG | not soluble
MIEQIGADSKSAENKQERKLYIETYGCQMNVADSEVVASVMQMDGYNLTDNVDEADTILVNTCSVRDNAEQKVLNRLAYYHSLRKKRRASSRLVIGVLGCMAERVKEELIREHHVDVVAGPDSYLDLPNLVGAAEQGEKAINVELSTQETYKDVMPLKMGGVHINGFVSIMRGCNNFCSYCIVPYTRGRERSREIESILNEVRDLKAKNFREVTLLGQNVNSYRYEQNGRIIRFPDLLAAVAEAVPDMRIRFTSPHPKDMDDEAIAVMARYRNICNHIHLPAQSGSDKMLRVMKRGYTRRWYLDRVAAIRRAIPDCAISSDLFCGFHSETEEDFEATLSLMEEVRYDSAFMFKYSERPGTYAARHLADDVPEEVKLSRLDRMIALQNRLSEESNKRDIGKTFEVLIEGFSKRSREQLFGRTQQNKVVIFDKNGHRVGQYIYVRIKDASSATLFGEVVETPTSE | not soluble
MAHLVITIGCEYGAKGNQIGKKVAKDLGIKFYDRDTVDEIIKEVGIPKDIMEKVEEGITIAGKGAEGDVRGSFSKYADLTERAIHVQKTIIRKLSDRESCVIIGRSADYILKEHKPILRIFIYSPDEVRIENVMKSHNLSEDDAKLFITEKDKRYHKRHMALTGSNRGDRHNRDMLIDSSLLGVDGTAELIESLARKVVENESKTEAGGDK | not soluble
MKIESAVEISKTATDFHTALDASSVIGSDRVDQLKSILNLTKSDTALLESNITQAKQLKITLDAQLQQRKALVDEYKSKLTVLEGSYMRKSAEVQRLQNELQNAQKAHAMKATTAPNEKNQANCSIS | not soluble
MRIAVIDYDKCNPDKCGHFLCERVCPVNRMGGEAIIIDEENNRPIIQEASCTGCGICVHKCPFKAISIVNLPEQLEEDCVHRYGVNAFVLYRLPVVKDGMVVGIVGPNGTGKTTAVKILAGQLIPNLCCDNDSWDDVIKAFRGSELQNYFEKLKNGEIKPVVKPQYVDLLPKAVKGKVGELLKKVDETGKFEEIVKVLELEKVLEREIDQLSGGELQRVAIAAAILRKAHFYFFDEPSSYLDIRQRLNVARVIRRLADEGKAVLVVEHDLAVLDYLSDIVHIVYGEPGVYGIFSQPKGTRNGINEFLQGYLKDENVRFRPYEIKFTKLSERVEVERETLVEYPRLVKDYGSFKLEVEPGEIRKGEVIGIVGPNGIGKTTFVKMLAGVEEPTEGKVEWDLTVAYKPQYIKAEYEGTVYDLLSKIDASKLNSNFYKTELLKPLGIIDLYDKNVNELSGGELQRVAIAATLLRDADIYLLDEPSAYLDVEQRLATSRAIRHLMEKNEKTALVVEHDVLMIDYVSDRLIVFEGEPSKYGKALPPMGMREGMNRFLASVGITFRRDPDTGRPRANKEGSVKDREQKEKGEYYYTD | soluble
MSLSFTVAVKEEILGQHHLSRHELSAIIKMSGSIGLSTSGLTLSVVTENAKLARHLYESFLHFYEIKSEIRHHQRSNLRKNRVYTVFTDEKVQDLLSDLHLADSFFGLETGIDEAILSDEEAGRAYLCGAFLANGSIRDPESGKYQLEISSVYLDHAQGIASLLQQFLLDAKVLERKKGAVTYLQRAEDIMDFLIVIGAMQARDDFERVKILRETRNDLNRANNAETANIARTVSASMKTINNISKIKDIMGLENLPVDLQEVAQLRIQHPDYSIQQLADSLSTPLTKSGVNHRLRKINKIADELEGHHHHHH | soluble
MNKFLFAAALIVSGLLVGCNQLTQYTITEQEINQSLAKHNNFSKDIGLPGVADAHIVLTNLTSQIGREEPNKVTLTGDANLDMNSLFGSQKATMKLKLKALPVFDKEKGAIFLKEMEVVDATVQPEKMQTVMQTLLPYLNQALRNYFNQQPAYVLREDGSQGEAMAKKLAKGIEVKPGEIVIPFTD | not soluble
MGSDKIHHHHHHMIFTMKATKILICILCCTWICSCSLLEVDPVSTITSQSFWKTPGDAKAYLTGIYNKVRSLNNTSYYGEDRGDAFKAGEIGPTSVAWAHTLLESNAPSYRSAYNIIHHANLLFNKIESLKFTNETEKNRIKAECHFLRAYTYFLIVRIWGDAPIITDPVLSDNVELKPRSPKEDVMKLILEDIEQSVLLFPEDGYINKNLASKPAAYALKADVLMWKAKVLNGGNADLEEAIKAIDQVGGSGVSLLPDYAKVFANDNKKNNEIIFSFYFERYETGNLSIATNTTSRTDNLSMAVNLADAATSPNQSRHVYAPSDKARELYLKYPGDRRYKVAMIDLVDKDGNLILTQTNKFRGKAYSDDRYFDDDLIAYRWGDLLLLRAEANAALNKISESLVDLNEVRDRAGLEPYDGPKDKIAVEKEICDERLRELFIEQKRWFDLVRFHCGGTIDIYKEVPNLNDKPGYPLYFPINYNDMVLNDKLVQTDGYESNVER | not soluble
